How the values were obtained:
[1] = system: rat retinal ganglion cells; experiment: Axonal outgrowth from purified rat retinal ganglion cells; format: cell-based; details: CNTF, rat RGCs
Description: Goldfish (Comet Variety, Mt. Parnell Fisheries, Mt. Parnell Pa.), 6-10 cm in length, were dark-adapted and their retinas dissected. Retinas were incubated with papain (20 μg/ml), activated with cysteine (2.8 mM) for 30 minutes at room temperature, then dissociated by gentle trituration. Repeated cycles of trituration and sedimentation yielded cultures nearly homogeneous in ganglion cells, which are readily identified by their oval shape, phase-bright appearance, size (diameter 15 μm), and extension of only 1 or 2 neurites of uniform caliber; these criteria have been verified by retrograde labeling (see Schwartz & Agranoff, Brain Res. 206: 331-343, 1981 and Schwalb et al., J. Neuroscience 15: 5514-5625, 1995, the contents of which are incorporated herein by reference). Low density cultures were achieved by plating c. 5×10^3 cells/well into poly L-lysine coated, 24-well culture dishes (Costar, Cambridge, Mass.). Cells were maintained at 21° C. in serum free, defined media containing insulin, selenium, transferrin, bovine serum albumin, catalase, superoxide dismutase, hormones, and vitamins in Eagle's L-15 media as described in Schwalb et al., 1995, the contents of which are incorporated herein by reference). Dissociated cultures of purified rat retinal ganglion cells were prepared by immunopanning as described in Barres et al., Neuron, 1: 791-803, 1988, the contents of which are incorporated herein by reference). In brief, retinas from postnatal day 8 Sparague-Dawley rats were dissociated using papain activated with cysteine. Macrophages were removed by incubation with an anti-rat macrophage antibody (Accurate) followed by immunopanning with an anti-rabbit 1gG antibody. Ganglion cells were isolated by immunopanning with an anti-Thy-1 antibody, then dislodged with trypsin for use in low-density cultures. Rat retinal ganglion cells were maintained at 37° C. in a CO2 incubator using the same medium described above except for the presence of 30 mM bicarbonate.
In a typical experiment, samples were plated in quadruplicate in randomized positions of a 24-well plate and the code was concealed to ensure that growth was evaluated in a blinded fashion. Each experiment contained 4 wells of a negative control (media plus supplements only) and 4 wells of a positive control (a standardized AF-1 sample of known activity). Growth and survival were assessed after 6 days for all ganglion cells in 25 consecutive fields of each well using phase contrast microscopy at 400× magnification (c. 150 ganglion cells counted per well). Extension of a process 5 cell diameters in length was the criterion for growth, since it clearly distinguishes stimulated cells from negative controls (see Schwalb et al., 1995). After the completion of counting, the code was broken, the data tabulated, and means and standard errors were calculated for the 4 replicate wells of each sample using Cricket Graph (CA Associates, Islandia, N.Y.). Data were normalized by subtracting the growth in the negative controls (usually 4-5%) and dividing by the net growth in the positive controls. In the most favorable experiments, more than 50% of retinal ganglion cells (RGCs) exposed to AF-1 extended axons 5 cell diameters in length after 6 days. Group comparisons were based upon pairwise, 2-tailed Student's t-tests. Several independent experiments were performed for most samples, as noted in the figure legends. In some cases, cell viability was assessed with the dye 5,6-carboxyfluorescein diacetate. […]

[2] = system: rat retinal ganglion cells; experiment: Cell survival of purified rat retinal ganglion cells; format: cell-based; details: CNTF, rat RGCs
Description: Goldfish (Comet Variety, Mt. Parnell Fisheries, Mt. Parnell Pa.), 6-10 cm in length, were dark-adapted and their retinas dissected. Retinas were incubated with papain (20 μg/ml), activated with cysteine (2.8 mM) for 30 minutes at room temperature, then dissociated by gentle trituration. Repeated cycles of trituration and sedimentation yielded cultures nearly homogeneous in ganglion cells, which are readily identified by their oval shape, phase-bright appearance, size (diameter 15 μm), and extension of only 1 or 2 neurites of uniform caliber; these criteria have been verified by retrograde labeling (see Schwartz & Agranoff, Brain Res. 206: 331-343, 1981 and Schwalb et al., J. Neuroscience 15: 5514-5625, 1995, the contents of which are incorporated herein by reference). […]
In a typical experiment, samples were plated in quadruplicate in randomized positions of a 24-well plate and the code was concealed to ensure that growth was evaluated in a blinded fashion. […] Growth and survival were assessed after 6 days for all ganglion cells in 25 consecutive fields of each well using phase contrast microscopy at 400× magnification (c. 150 ganglion cells counted per well). […] After the completion of counting, the code was broken, the data tabulated, and means and standard errors were calculated for the 4 replicate wells of each sample using Cricket Graph (CA Associates, Islandia, N.Y.). […]

B1: CNTF: Ciliary neurotrophic factor (protein, UniProt P26441 1-200, looked up)
Ciliary neurotrophic factor: MAFTEHSPLTPHRRDLCSRSIWLARKIRSDLTALTESYVKHQGLNKNINLDSADGMPVASTDQWSELTEAERLQENLQAYRTFHVLLARLLEDQQVHFTPTEGDFHQAIHTLLLQVAAFAYQIEELMILLEYKIPRNEADGMPINVGDGGLFEKKLWGLKVLQELSQWTVRSIHDLRFISSHQTGIPARGSHYIANNKKM
[1]
  outgrowth compared with inosine: much larger increase in outgrowth
[2]
  cell survival: enhanced cell survival

— patent US7935680B2, “Methods for modulating the axonal growth of central nervous system neurons” (Children's Medical Center Corporation, priority 1997, dated 2011)
